B1: OR4K15 (parent)
chain: GUUAACGGUCAUAGGCCAUGGAAACUAGGAGCACCAUUUCGCUGCCAGUGAAGAAAUGAACAAAGAAAAUCUGGGCCAGGCAGGCAUCAAAAGAAAUAGUCUUGCGCUCAACCAGAAAGUCUGUAAUCAUUUUAAGGGUA

Variants of: B1
Assay: self-cleavage, relative activity (ratio to wild type); higher = more cleavage; in vitro, sequencing; the parent is a self-cleaving ribozyme
Variant GUUUACGGUCAUAGGCCAUGGAAACUAGGAGCACCAUUUCGCUGCCAGUGAAGAAAUGAACAGAGAAAAUCUGGGCCAGGCAGGCAUCAAAAGAAAUAGUCUUGCGCUCAACCAGAAAGUCUGUAAUCAUUUUAAGGGUA [A4U A63G] has a self-cleavage of 0.87. Work on GUUACCGGUCAUAGGCCAUGGAAACUAGGAGCACCAUUUCGCUGCCAGUGAAGAAAUGAACAAAGAAAAUCUGGGCCAGGCAGGCAUCAAAAGAAAUAGUCUUGCGCUCAACCAGAUAGUCUGUAAUCAUUUUAAGGGUA [A5C A117U] yielded a self-cleavage of 0.56. In the case of GUUUACGGUCAUAGGCCAUGGAAGCUAGGAGCACCAUUUCGCUGCCAGUGAAGAAAUGAACAAAGAAAAUCUGGGCCAGGCAGGCAUCAAAAGAAAUAGUCUUGCGCUCAACCAGAAAGUCUGUAAUCAUUUUAAGGGUA [A4U A24G], the self-cleavage is reported as 0.76. GUUACCGGUCAUAGGCCAUGGAAACUAGGAGCACCAUUUCGCUGCCAGUGAGGAAAUGAACAAAGAAAAUCUGGGCCAGGCAGGCAUCAAAAGAAAUAGUCUUGCGCUCAACCAGAAAGUCUGUAAUCAUUUUAAGGGUA [A5C A52G] gave a self-cleavage of 0.46. GUUACCGGUCAUAGGCCAUGGAAACUAGGAGCACCUUUUCGCUGCCAGUGAAGAAAUGAACAAAGAAAAUCUGGGCCAGGCAGGCAUCAAAAGAAAUAGUCUUGCGCUCAACCAGAAAGUCUGUAAUCAUUUUAAGGGUA [A5C A36U] gave a self-cleavage of 1.59. GUUGACGGUCAUAGGCCAUGGAAACUAGGAGCACCAUUUCGCUGCCAGUGAAGAAAUGAACAAAGAAAAUCUGGGCCAGGCAGGCAUCAAAAGAAAUAGUCUUGCGCUCAACCAGAAAGUCUGAAAUCAUUUUAAGGGUA [A4G U124A] gave a self-cleavage of 0.48. In the case of GUUGACGGUCAUAGGCCAUGGAAACUAGGAGCACCAUUUCGCUGCCAGUGAAGAAAUGAACAAAGAAAAUCUGGGCCAGGCAGGCAUCAAAAGAAAUAGUCUUGCGCUCAACCAGAAAGUCUGCAAUCAUUUUAAGGGUA [A4G U124C], the self-cleavage is reported as 0.5. GUUACCGGUCAUAGGCCAUGGAAACUAGGAGCACCAUUUCGCUGCCAGUGAAGAAAUGAACAAAGAAAAUCUGGGCCAGGCAGGCAUCAAAAGAAAUAGUCUUGCGCUCAACCAGAAAGUCUGUAAUCAUUUUAAGGGUA [A5C] showed a self-cleavage of 1.21. Work on GUUAGCGGUCAUAGGCCAUGGAAACUAGGAGCACCAUUUCGCUGCCAGUGAAGAAAUGAACAAAGAAAAUCUGGGCCAGGCAGGCAUCAAAAGAAAUAGUCUUGCGCUCAACCAGAAAGUCUGUAAUCAUUUUAAGGGUA [A5G] yielded a self-cleavage of 0.92. Work on GUUACCGGUCAUAGGCCAUGGAAACUAGGAGCACCAUUUCGCUGCCAGUGAAGAAAUGAACAAAGAAAAUCUGGGCCAGGCAGGCAUCAAAAGAAAUAGUCUUGCGCUCAGCCAGAAAGUCUGUAAUCAUUUUAAGGGUA [A5C A111G] yielded a self-cleavage of 0.16. With GUUACCGGUCAUAGGCCAUGGAAACUAGGAGCACCAUUUCGCUGCCAGUGAAGAAAUGAACAAAGAAAAUCUGGGCCAGGCAGGCAUCAAAAGAGAUAGUCUUGCGCUCAACCAGAAAGUCUGUAAUCAUUUUAAGGGUA [A5C A95G] the self-cleavage was 0.99. GUUUACGGUCAUAGGCCAUGGAAACUAGGAGCACCAUUUCGCUGCCAGUGAAGAAAUGAACAAAGAAAAUCUGGGCCAGGCAGGCAUCAAAAGAGAUAGUCUUGCGCUCAACCAGAAAGUCUGUAAUCAUUUUAAGGGUA [A4U A95G] showed a self-cleavage of 1.65. GUUACCGGUCAUAGGCCAUGGAAACUAGGAGCACCAUUUCGCUGCCAGUGAAGAAAUGAACAAAGAAAAUCUGGGCCAGGCAGGCAUCAAAAGAAAUAGUCUUGCGCACAACCAGAAAGUCUGUAAUCAUUUUAAGGGUA [A5C U108A] showed a self-cleavage of 0.07. In the case of GUUGACGGUCAUAGGCCAUGGAAACUAGGAGCACCAUUUCGCUGCCAGUGAAGAAAUGAACAAAGAAAAUCUGGGCCAGGCAGGCAUCAAAAGAAAUAGCCUUGCGCUCAACCAGAAAGUCUGUAAUCAUUUUAAGGGUA [A4G U100C], the self-cleavage is reported as 1.42. GUUACCGGUCAUAGGCCAUGGAGACUAGGAGCACCAUUUCGCUGCCAGUGAAGAAAUGAACAAAGAAAAUCUGGGCCAGGCAGGCAUCAAAAGAAAUAGUCUUGCGCUCAACCAGAAAGUCUGUAAUCAUUUUAAGGGUA [A5C A23G] showed a self-cleavage of 1.28. In the case of GUUACCGGUCAUAGGCCAUGGAAACUAGGAGCACCAUUUCGCUGCCGGUGAAGAAAUGAACAAAGAAAAUCUGGGCCAGGCAGGCAUCAAAAGAAAUAGUCUUGCGCUCAACCAGAAAGUCUGUAAUCAUUUUAAGGGUA [A5C A47G], the self-cleavage is reported as 1.1. Variant GUUACCGGUCAUAGGCCAUGGAAACUAGGAGCACCAUUUCGCUGCCAGUGAAGAAAUGAACAAAGAAAAUCUGGGCCAGGCAGGCAUCAAAAGAAAUAGUCUUGCGCUCAACCAGAAAGUCUGUAAUCAUUUUUAGGGUA [A5C A134U] has a self-cleavage of 2.1. GUUACCGGUCAUAGGCCAUGGAAACUAGGAGCACCAUUUCGCUGCCAGUGAAGAAAUGAACAAAGAAAAUCUGGGCCAGGCAGGCAUCAAAAGAAAUAGUCUUGCGCUCGACCAGAAAGUCUGUAAUCAUUUUAAGGGUA [A5C A110G] gave a self-cleavage of 0.33. Variant GUUACCGGUCAUAGGCCAUGGAAACUAGGAGCACCAUUUCGCUGCCAGUGAAGAAAUGAACAAAGAAAAUCUGGGCCAGGCAGGCAUCAAAAGAAAUAGUCUUGCGCUCAACCAGAAAGUCUGUAAUCAUUCUAAGGGUA [A5C U132C] has a self-cleavage of 1.97. GUUACCGGUCAUAGGCCAUGGAAACUAGGAGCGCCAUUUCGCUGCCAGUGAAGAAAUGAACAAAGAAAAUCUGGGCCAGGCAGGCAUCAAAAGAAAUAGUCUUGCGCUCAACCAGAAAGUCUGUAAUCAUUUUAAGGGUA [A5C A33G] showed a self-cleavage of 0.87. For GUUUACGGUCAUAGGCCAUGGAAACUAGGAGCACCAUUUCGCUGCCAGUGAAGAAAUGAACAAAGAAAAUCAGGGCCAGGCAGGCAUCAAAAGAAAUAGUCUUGCGCUCAACCAGAAAGUCUGUAAUCAUUUUAAGGGUA [A4U U72A], the self-cleavage was 0.28. GUUGACGGUCAUAGGCCAUGGAAACUAGGAGCACCAUUUCGCUGCCAGUGAAGAAAUGAACAAAGAAAAUCUGGGCCAGGCAGGCAUCAAAAGAAAUAGUCUUGCGCUCAACCAGAAAGACUGUAAUCAUUUUAAGGGUA [A4G U120A] showed a self-cleavage of 1.62. GUUUACGGUCAUAGGCCAUGGAAACUAGGAGCACCAUUUCGCUGCCAGUGAAGAAAUGAACAAAGAAAAUCUGGGCCAGGCAGGCAUCAAAAGAAAUAGUCUUGCGCUCAACCAGAAAGUCUGUAACCAUUUUAAGGGUA [A4U U127C] gave a self-cleavage of 1.34. GUUACCGGUCAUAGGCCAUGGAAACUAGGAGCACCAUUUCGCUGCCAGUGAAGAAGUGAACAAAGAAAAUCUGGGCCAGGCAGGCAUCAAAAGAAAUAGUCUUGCGCUCAACCAGAAAGUCUGUAAUCAUUUUAAGGGUA [A5C A56G] showed a self-cleavage of 1.05. With GUUGACGGUCAUAGGCCAUGGAAACUAGGAGCACCAUUUCGCUGCCAGUGAAGAAAUGAACAAAGAAAAUCUGGGCCAGGCAGGCACCAAAAGAAAUAGUCUUGCGCUCAACCAGAAAGUCUGUAAUCAUUUUAAGGGUA [A4G U87C] the self-cleavage was 1.14. For GUUUACGGUCAUAGGCCAUGGAAACUAGGAGCACCAUUUCGCUGCCAGUGAAGAAAUGAACAAAGAAAAUCUGGGCCAGGCAGGCAUCAAAAGAAAUAGUCUUGCACUCAACCAGAAAGUCUGUAAUCAUUUUAAGGGUA [A4U G106A], the self-cleavage was 0.14. GUUGACGGUCAUAGGCCAUGGAAACUAGGAGCACCAUUUCGCUGCCAGUGAAGAAAUGAACAAAGAAAAUCUGGGCCAGGCAGGCAUCAAAAGAAAUAGUCUAGCGCUCAACCAGAAAGUCUGUAAUCAUUUUAAGGGUA [A4G U103A] showed a self-cleavage of 1.27. GUUGACGGUCAUAGGCCAUGGAAACUAGGAGCACCAUUUCGCUGCCAGUGAAGAAAUGAACAAAGAAAAUCUGGGCCAGGCAGGCAUCAAAAGAAAUAGUCUCGCGCUCAACCAGAAAGUCUGUAAUCAUUUUAAGGGUA [A4G U103C] gave a self-cleavage of 1.19. With GUUACCGGUCAUAGGCUAUGGAAACUAGGAGCACCAUUUCGCUGCCAGUGAAGAAAUGAACAAAGAAAAUCUGGGCCAGGCAGGCAUCAAAAGAAAUAGUCUUGCGCUCAACCAGAAAGUCUGUAAUCAUUUUAAGGGUA [A5C C17U] the self-cleavage was 0.39. GUUUACGGUCAUAGGCCAUGGAAACUAGGAGCACCAUUUCGCUGCCAGUGAAGAAAUGAACAAAGAAAAUCUGGGCCAGGCAGGCAUCAAAAGAAAUAGUCUUGCGCUCAACCAGAAAGUCUGUAAUCAUUUUAAGGGUG [A4U A140G] showed a self-cleavage of 1.16. Work on GUUUACGGUCAUAGGCCAUGGAAACUAGGAGCACCAUUUCGCUGCCAGUGAAGAAAUGAACAAAGAAAAUCUGGGCCAGGCAGGCAUCAAAAGAAAUAGUCUUGCGCCCAACCAGAAAGUCUGUAAUCAUUUUAAGGGUA [A4U U108C] yielded a self-cleavage of 0.09. With GUUACCGGUCAUAGGCCAUGGAAACUAGGAGCACCAUUUCGCUGCCAGUGAAGAAAUGAACAAAGAAGAUCUGGGCCAGGCAGGCAUCAAAAGAAAUAGUCUUGCGCUCAACCAGAAAGUCUGUAAUCAUUUUAAGGGUA [A5C A68G] the self-cleavage was 1.63. For GUUACCGGUCAUAGGCCGUGGAAACUAGGAGCACCAUUUCGCUGCCAGUGAAGAAAUGAACAAAGAAAAUCUGGGCCAGGCAGGCAUCAAAAGAAAUAGUCUUGCGCUCAACCAGAAAGUCUGUAAUCAUUUUAAGGGUA [A5C A18G], the self-cleavage was 1.02. With GUUGACGGUCAUAGGCCAUGGAAACUAGGAGCACCAUUUCGCUGCCAGUGAAGAAAUGAACAAAGAAAAUCUGGGCCAGGCAGGCAUCAAAAGAAAUAGUCUUGCGCUCAACCAGAAAGUCAGUAAUCAUUUUAAGGGUA [A4G U122A] the self-cleavage was 1.37. Work on GUUUACGGUCAUAGGCCAUGGAAACUAGGAGCACCAUUUCGCUGCCAGUGAAGAAACGAACAAAGAAAAUCUGGGCCAGGCAGGCAUCAAAAGAAAUAGUCUUGCGCUCAACCAGAAAGUCUGUAAUCAUUUUAAGGGUA [A4U U57C] yielded a self-cleavage of 0.65. Work on GUUUACGGUCAUAGGCCAUGGAAACUAGGAGCACCAUUUCGCUGCCAGUGAAGAAAAGAACAAAGAAAAUCUGGGCCAGGCAGGCAUCAAAAGAAAUAGUCUUGCGCUCAACCAGAAAGUCUGUAAUCAUUUUAAGGGUA [A4U U57A] yielded a self-cleavage of 1.53. With GUUACCGGUCAUAGGCCAUGGAAACUAGGAGCACCAUUUCGCUGCCAGUGAAGAAAUGAACAAAGAAAAUCUGGGCCAGGCAGGCAUCAAAAGAAAUAGUCUUGUGCUCAACCAGAAAGUCUGUAAUCAUUUUAAGGGUA [A5C C105U] the self-cleavage was 0.08. Work on GUUACCGGUCAUAGGCCAUGGAAACUAGGAGCACCAUUUCGCUGCCAGUGAAGAAAUGAACAAAGGAAAUCUGGGCCAGGCAGGCAUCAAAAGAAAUAGUCUUGCGCUCAACCAGAAAGUCUGUAAUCAUUUUAAGGGUA [A5C A66G] yielded a self-cleavage of 2.49. With GUUACCGGUCAUAGGCCAUGGAAACUAGGAGCACCAUUUCGCUGCCAGUGAAGAAAUGAACAAAGAAAAUCUGGGCCAGGCAGGCAUCAAAAGAAAUAGUCUCGCGCUCAACCAGAAAGUCUGUAAUCAUUUUAAGGGUA [A5C U103C] the self-cleavage was 1.39. Variant GUUACCGGUCAUAGGCCAUGGAAACUAGGAGCACCAUUUCGCUGCCAGUGAAGAAAUGAACAAAGAAAAUCUGGGCCAGGCAGGCAUCAAAAGAAAUAGUCAUGCGCUCAACCAGAAAGUCUGUAAUCAUUUUAAGGGUA [A5C U102A] has a self-cleavage of 1.35. Work on GUUUACGGUCAUAGGCCAUGGAAACUAGGAGCACCAUUUCGCUGCCAGUGAAGAAGUGAACAAAGAAAAUCUGGGCCAGGCAGGCAUCAAAAGAAAUAGUCUUGCGCUCAACCAGAAAGUCUGUAAUCAUUUUAAGGGUA [A4U A56G] yielded a self-cleavage of 0.98.
